How the values were obtained:
[1] = biological target: endogenous BP-53 of human serum (human) (UniProt P17936); experiment: DEAE-Sephadex peaks A and B mixed for 60 min at 22° C, Superose-12, BP-53 RIA
[2] = biological target: IGF affinity column loaded with BP-53 (BP-53 non-covalently bound to agarose-IGF) (human) (UniProt P17936); experiment: affinity chromatography of DEAE-Sephadex ALS fractions on the IGF column loaded with BP-53
[3] = biological target: acid-labile sub-unit (ALS) of insulin like growth factor binding protein complex (human) (UniProt P35858); experiment: competition of acidified-neutralized serum with cross-linked BP-53-IGF-I tracer in the routine ALS assay
acid-labile sub-unit (ALS) of insulin like growth factor binding protein complex (human), sequence (P35858 28-605, one chain of several): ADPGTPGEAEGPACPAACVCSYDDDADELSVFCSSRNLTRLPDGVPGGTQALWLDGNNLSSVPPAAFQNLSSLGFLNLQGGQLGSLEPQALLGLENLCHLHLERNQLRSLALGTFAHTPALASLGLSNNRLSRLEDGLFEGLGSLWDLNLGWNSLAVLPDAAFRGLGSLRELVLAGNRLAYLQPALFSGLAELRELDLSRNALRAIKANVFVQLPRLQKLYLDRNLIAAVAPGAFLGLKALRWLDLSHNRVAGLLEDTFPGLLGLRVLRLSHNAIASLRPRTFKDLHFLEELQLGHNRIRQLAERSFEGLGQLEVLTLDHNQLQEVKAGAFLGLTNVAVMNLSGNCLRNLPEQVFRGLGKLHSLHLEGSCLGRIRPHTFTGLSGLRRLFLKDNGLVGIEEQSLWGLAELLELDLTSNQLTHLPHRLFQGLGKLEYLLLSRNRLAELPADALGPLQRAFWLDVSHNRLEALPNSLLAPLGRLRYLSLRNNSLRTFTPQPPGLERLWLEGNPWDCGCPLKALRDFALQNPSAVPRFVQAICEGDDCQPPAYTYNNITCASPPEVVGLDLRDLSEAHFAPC

acid-labile sub-unit (ALS) of insulin like growth factor binding protein complex, sequence (P35858 28-605, one chain of several): as above

percent of BP-53 activity shifted from 30-60K to 150K [1] | percent of ALS activity retained [2] | IC50 [3] | concentration for full displacement [3] | Substance
> 50% | > 90% | – | – | acid-labile sub-unit (ALS) of insulin like growth factor binding protein complex (from UniProt P35858 28-605)
– | – | 0.2 to 0.25 µg/mL | 1 µg/mL | endogenous BP-53 of human serum (from UniProt P17936 28-291)

Source: US6465423
